Measured values from paper PMC5445526.

Tests used:
BXA-(GB1)2 [1] = assay: MALDI-TOF mass spectrometry
BXA-(GB1)2 [2] = assay: SEC + other: SDS-PAGE with gel densitometry
BXA-(GB1)2 [3] = assay: SDS-PAGE with gel densitometry
BXA-(GB1)2 [4] = assay: SEC
(GB1)2-AXB [5] = assay: MALDI-TOF mass spectrometry
(GB1)2-AXB [6] = assay: SEC + other: SDS-PAGE with gel densitometry
(GB1)2-AXB [7] = assay: SDS-PAGE with gel densitometry
(GB1)2-AXB [8] = assay: SEC
(GB1)2-BXA [9] = assay: MALDI-TOF mass spectrometry
(GB1)2-BXA [10] = assay: SEC + other: SDS-PAGE with gel densitometry
(GB1)2-BXA [11] = assay: SDS-PAGE with gel densitometry
(GB1)2-BXA [12] = assay: SEC
AXB-(GB1)2 [13] = assay: MALDI-TOF mass spectrometry
AXB-(GB1)2 [14] = assay: SEC + other: SDS-PAGE with gel densitometry
AXB-(GB1)2 [15] = assay: SDS-PAGE with gel densitometry
AXB-(GB1)2 [16] = assay: SEC

Substance BXA-(GB1)2 has a stoichiometry N (BXA-(GB1)2 [1]) of 2, an overall catenation efficiency (%) (BXA-(GB1)2 [2]) of 83% and a dimer content by SDS-PAGE densitometry (%) (BXA-(GB1)2 [3]) of 86%. For the same substance, the dimer content by SEC (%) (SEC) was 97% and the stoichiometry N (BXA-(GB1)2 [4]) was 2.

With (GB1)2-AXB the stoichiometry N ((GB1)2-AXB [5]) was 2, the overall catenation efficiency (%) ((GB1)2-AXB [6]) was 73% and the dimer content by SDS-PAGE densitometry (%) ((GB1)2-AXB [7]) was 93%. It also gave a dimer content by SEC (%) (SEC) of 78% and a stoichiometry N ((GB1)2-AXB [8]) of 2.

Work on (GB1)2-BXA yielded a stoichiometry N ((GB1)2-BXA [9]) of 2, an overall catenation efficiency (%) ((GB1)2-BXA [10]) of 76% and a dimer content by SDS-PAGE densitometry (%) ((GB1)2-BXA [11]) of 83%. It also gave a dimer content by SEC (%) (SEC) of 92% and a stoichiometry N ((GB1)2-BXA [12]) of 2.

For AXB-(GB1)2, the stoichiometry N (AXB-(GB1)2 [13]) was 2, the overall catenation efficiency (%) (AXB-(GB1)2 [14]) was 66% and the dimer content by SDS-PAGE densitometry (%) (AXB-(GB1)2 [15]) was 80%. It also gave a dimer content by SEC (%) (SEC) of 82% and a stoichiometry N (AXB-(GB1)2 [16]) of 2.
